# Test results from PMC12115719.
# Biological target: Syngnathus scovelli chapparvovirus (SsChPV) VP, capsid protein (Syngnathus scovelli chapparvovirus)
# Test: cryo-EM structure
substance,measurement,value
"Syngnathus scovelli chapparvovirus (SsChPV) VP, capsid protein (natural protein)",stoichiometry N,60
